Measurements: US20240336672A1 (INSTITUT PASTEUR, published 2024)

B1: Cv2.1169 (recombinant human IgG1) (antibody)
heavy: QVQLVQSGPEVKKPGTSVKVSCKASGFTFTTSAVQWVRQARGQRLEWIGWIVVGSGNTNYAQKFQERVTITRDMSTTTAYMELSSLRSEDTAVYYCAAPYCSGGTCLDGFDIWGQGTMVTVSSASTKGPSVFPLAPSSKSTSGGTAALGCLVKDYFPEPVTVSWNSGALTSGVHTFPAVLQSSGLYSLSSVVTVPSSSLGTQTYICNVNHKPSNTKVDKKVEPKSCDKTHTCPPCPAPELLGGPSVFLFPPKPKDTLMISRTPEVTCVVVDVSHEDPEVKFNWYVDGVEVHNAKTKPREEQYNSTYRVVSVLTVLHQDWLNGKEYKCKVSNKALPAPIEKTISKAKQPREPQVYTLPPSRDELTKNQVSLTCLVKGFYPSDIAVEWESNGQPENNYKTTPPVLDSDGSFFLYSKLTVDKSRWQQGNVFSCSVMHEALHNHYTQKSLSLSPGK
light: not shown
notes: also called Cv2.1169 IgG
B2: Cv2.3194 (recombinant human IgG1) (antibody, V domains shown)
VH: EVQLVESGGGLIQPGGSLRLSCAASGITVTSNYMSWVRQAPGKGLEWVSVIYPGGSTFYADSVKGRFTISRDNSKNTLYLQMNSLRAEDTAVYYCARDLVVYGMDVWGQGTTVTVSS
VL: EIVLTQSPGTLSLSPGERATLSCRASQSVSSSYLAWYQQKPGQAPRLLIYGASSRATGIPGRFSGSGSGTDFTLTISRLEPEDFAIYYCQQGVTFGGGTKVEIKR
B3: Cv2.5213 (recombinant human IgG1) (antibody, V domains shown)
VH: EVQLVESGGGLIQPGGSLRLSCAASGFTVSSNYMSWVRQAPGKGLEWVSLIYSGGSTYYADSVKGRFTISRDNSKNTLYLQMNSLRAEDTAVYYCARDLNYYGMDVWGQGATVTVSS
VL: DIQMTQSPSSLSASVGDRVTITCRASQGISSYLAWYQQKPGKAPKLLIYAASTLQSGVPSRFSGSGSGTDFTLTISSLQPEDFATYYCQQLDSYSPFTFGPGTKVDIKR
B4: Cv2.3235 (recombinant human IgG1) (antibody, V domains shown)
VH: EVQLVESGGGLIQPGGSLRLSCAASGFTVSRNYMSWVRQAPGKGLEWVSVIYSGGSTFYADSVKGRFTISRDNSKNTLYLQMNSLRAEDTAVYYCARDGDYYGMDVWGQGTTVTVSS
VL: DIQMTQSPSFLSASVGDRVTITCRASQGISSFLAWYQQKPGKAPKLLIYGASTLQSGVTSRFSGSGSGTEFTLTISSLQPEDFATYYCQRLDSYPPITFGQGTRLEIKR
B5: Cv2.1353 (recombinant human IgG1) (antibody, V domains shown)
VH: EVQLVESGGGLVQPGGSLRLSCAASGVTVSSNYMNWVRQAPGKGLEWVSVIYSGGSTFYADSVKGRFIISRDNSKNTLYLQMNSLKTEDTAVYYCARDLGPMGFDIWGQGTMVTVSS
VL: DIQMTQSPSFLSASVGDRVTITCRASQGISSYLAWYQQKPGKAPKLLIYAASTLQSGVPSRFSGSGSGTEFTLTISSLQPEDFATYYCQQLNSDPPVTFGPGTKVDIKR

Key:
[1] = molecular target: T1, CoV-HKU1 Spike ectodomain (HKU1-CoV, UniProt Q0ZME7 14-1276); assay: ELISA, coated antigen; further: test concentration or dose not given here
T1 chain: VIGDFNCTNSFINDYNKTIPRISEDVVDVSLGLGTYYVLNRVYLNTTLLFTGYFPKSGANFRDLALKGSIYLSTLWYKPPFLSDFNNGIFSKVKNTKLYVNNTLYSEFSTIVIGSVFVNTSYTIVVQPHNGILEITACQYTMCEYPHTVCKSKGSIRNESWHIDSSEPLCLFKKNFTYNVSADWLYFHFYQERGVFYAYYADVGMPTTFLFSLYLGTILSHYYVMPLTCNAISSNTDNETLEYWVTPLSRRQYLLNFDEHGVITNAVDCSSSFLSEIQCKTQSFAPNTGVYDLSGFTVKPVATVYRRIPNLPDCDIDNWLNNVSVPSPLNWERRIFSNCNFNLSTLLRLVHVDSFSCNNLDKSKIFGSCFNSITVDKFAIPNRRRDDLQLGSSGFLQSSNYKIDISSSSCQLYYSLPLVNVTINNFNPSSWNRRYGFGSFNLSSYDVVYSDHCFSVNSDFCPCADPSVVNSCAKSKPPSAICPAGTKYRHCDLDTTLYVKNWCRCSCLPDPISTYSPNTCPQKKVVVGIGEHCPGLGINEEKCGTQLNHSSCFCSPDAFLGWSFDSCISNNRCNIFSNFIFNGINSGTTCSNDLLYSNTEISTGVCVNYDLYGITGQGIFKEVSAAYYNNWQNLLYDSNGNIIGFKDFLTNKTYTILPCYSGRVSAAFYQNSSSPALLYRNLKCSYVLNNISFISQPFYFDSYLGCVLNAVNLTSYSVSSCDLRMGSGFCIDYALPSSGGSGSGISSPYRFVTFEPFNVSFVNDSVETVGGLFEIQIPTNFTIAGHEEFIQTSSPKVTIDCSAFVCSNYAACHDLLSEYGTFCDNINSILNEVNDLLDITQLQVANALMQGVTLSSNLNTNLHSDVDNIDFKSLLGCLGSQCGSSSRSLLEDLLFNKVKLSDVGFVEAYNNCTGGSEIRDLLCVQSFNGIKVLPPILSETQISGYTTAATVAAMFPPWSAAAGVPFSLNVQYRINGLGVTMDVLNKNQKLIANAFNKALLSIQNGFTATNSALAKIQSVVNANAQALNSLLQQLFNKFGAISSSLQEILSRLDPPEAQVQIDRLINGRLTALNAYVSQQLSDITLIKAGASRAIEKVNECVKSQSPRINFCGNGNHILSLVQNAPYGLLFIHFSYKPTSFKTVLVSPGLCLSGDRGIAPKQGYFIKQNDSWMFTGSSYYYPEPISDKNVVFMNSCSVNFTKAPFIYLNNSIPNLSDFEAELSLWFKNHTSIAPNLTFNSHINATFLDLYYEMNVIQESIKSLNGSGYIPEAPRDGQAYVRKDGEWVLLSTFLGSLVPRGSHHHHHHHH

[2] = molecular target: T2, CoV-OC43 Spike ectodomain (OC43-CoV, UniProt P36334 14-1263); assay: ELISA, coated antigen; further: test concentration or dose not given here
T2 chain: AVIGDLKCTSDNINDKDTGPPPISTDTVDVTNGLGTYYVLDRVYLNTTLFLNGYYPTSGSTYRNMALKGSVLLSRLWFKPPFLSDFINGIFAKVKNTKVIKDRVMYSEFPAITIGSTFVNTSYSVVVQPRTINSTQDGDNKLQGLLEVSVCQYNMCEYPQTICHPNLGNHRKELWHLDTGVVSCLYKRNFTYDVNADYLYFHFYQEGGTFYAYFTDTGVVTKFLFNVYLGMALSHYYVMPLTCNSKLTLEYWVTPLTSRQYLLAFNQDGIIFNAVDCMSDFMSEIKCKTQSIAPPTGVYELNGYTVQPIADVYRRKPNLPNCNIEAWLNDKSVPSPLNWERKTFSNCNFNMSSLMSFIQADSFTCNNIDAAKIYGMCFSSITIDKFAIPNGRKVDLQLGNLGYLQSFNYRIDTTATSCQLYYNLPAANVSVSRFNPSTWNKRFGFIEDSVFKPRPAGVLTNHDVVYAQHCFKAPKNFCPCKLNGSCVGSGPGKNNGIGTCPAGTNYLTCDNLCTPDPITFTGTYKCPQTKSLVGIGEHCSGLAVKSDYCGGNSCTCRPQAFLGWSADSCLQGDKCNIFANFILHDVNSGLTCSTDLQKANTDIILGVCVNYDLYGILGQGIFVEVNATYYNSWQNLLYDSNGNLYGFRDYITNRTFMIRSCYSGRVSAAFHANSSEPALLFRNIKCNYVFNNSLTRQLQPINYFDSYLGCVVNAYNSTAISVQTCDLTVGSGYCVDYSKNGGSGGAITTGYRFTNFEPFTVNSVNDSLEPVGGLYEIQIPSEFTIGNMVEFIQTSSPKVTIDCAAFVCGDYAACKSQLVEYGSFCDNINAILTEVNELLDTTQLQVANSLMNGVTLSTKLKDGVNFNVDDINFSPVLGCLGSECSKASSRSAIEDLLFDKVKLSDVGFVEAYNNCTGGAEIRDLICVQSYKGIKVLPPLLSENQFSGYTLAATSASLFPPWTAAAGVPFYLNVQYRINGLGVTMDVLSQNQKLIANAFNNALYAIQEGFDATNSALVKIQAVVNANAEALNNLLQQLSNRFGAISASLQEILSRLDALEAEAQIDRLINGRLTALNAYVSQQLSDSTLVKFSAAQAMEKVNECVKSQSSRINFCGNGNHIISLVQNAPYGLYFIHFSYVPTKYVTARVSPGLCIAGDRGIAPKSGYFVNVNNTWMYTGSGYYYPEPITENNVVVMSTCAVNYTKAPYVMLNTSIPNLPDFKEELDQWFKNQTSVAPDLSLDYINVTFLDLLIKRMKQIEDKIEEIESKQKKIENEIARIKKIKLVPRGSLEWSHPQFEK

| Binder | ELISA OD [1] | ELISA OD [2] |
| --- | --- | --- |
| B1 | 0.1 OD | 0.1 OD |
| B2 | 0.1 OD | 0.8 OD |
| B3 | 0.1 OD | 0.7 OD |
| B4 | 0.2 OD | 0.3 OD |
| B5 | 0.1 OD | 0.8 OD |
